Measurements taken from patent publication US20120178701A1 (PALATIN TECHNOLOGIES, published 2012).
Bridge positions count the residues as written; N and C are the ends. Square brackets hold non-standard residues; d marks the D form. * marks the point of attachment. Pro(4R-Bn) = O=C(O)[C@@H]1C[C@@H](Cc2ccccc2)CN1; Aad = N[C@@H](CCCC(=O)O)C(=O)O; Orn = NCCC[C@H](N)C(=O)O; Dab = NCC[C@H](N)C(=O)O; NHcPr = C1CC1N*

Tests used:
[1] = biological target: T1, human recombinant melanocortin-4 receptor (human, UniProt P32245 1-332); assay: competitive inhibition of Eu-NDP-α-MSH (TRF), hMC4-R HEK-293 membranes
T1 construct: whole, on cells; cAMP assays used the whole cells; also called hMC4-R; MC4-R
Protocol: After incubation for 90 minutes at 37° C., the reaction was stopped by filtration over AcroWell 96-well filter plates (Pall Life Sciences). The filter plates were washed 4 times with 200 μL of ice-cold phosphate-buffered saline. DELFIA Enhancement solution (PerkinElmer Life Sciences) was added to each well. The plates were incubated on a shaker for 15 minutes and read at 340 nm excitation and 615 nm emission wavelengths. Each assay was conducted in duplicate and mean values were utilized. Ki values were determined by curve-fitting with Graph-Pad Prism® software using a one-site fixed-slope competition binding model.
(§1) 9.1 Peptides of the following structures were synthesized by the general methods described above, and averaged MC4-R Ki values for peptides were determined as indicated. […] Ki values marked “ND” were not determined.

[2] = biological target: T1, human recombinant melanocortin-4 …; assay: cell-based or functional assay
[3] = biological target: T2, human recombinant melanocortin-1 receptor (human, UniProt Q01726 1-317); assay: cell-based or functional assay
[4] = biological target: T1, human recombinant melanocortin-4 …; assay: ratio of Ki values, hMC1-R as reference
[5] = biological target: T2, human recombinant melanocortin-1 …; assay: competitive inhibition of labelled NDP-α-MSH, hMC1-R membranes
Protocol: (§2) A competitive inhibition binding assay is performed using membrane homogenates prepared from HEK-293 cells that express recombinant hMC4-R, hMC3-R, or hMC5-R, and from B-16 mouse melanoma cells (containing endogenous MC1-R). In some instances, HEK-293 cells that express recombinant hMC1-R were employed. In the examples that follow, all MC3-R, MC4-R and MC5-R values are for human recombinant receptors. […] Membrane homogenates were incubated with 0.2 nM (for hMC4-R) 0.4 nM (for MC3-R and MC5-R) or 0.1 nM (for mouse B16 MC1-R or hMC1-R) [I¹²⁵]-NDP-α-MSH (Perkin Elmer) and increasing concentrations of test peptides of the present invention in buffer containing 25 mM HEPES buffer (pH 7.5) with 100 mM NaCl, 2 mM CaCl₂, 2 mM MgCl₂, 0.3 mM 1,10-phenanthroline, and 0.2% bovine serum albumin. After incubation for 60 minutes at 37° C., the assay mixture was filtered and the membranes washed three times with ice-cold buffer. Filters were dried and counted in a gamma counter for bound radioactivity. […] Maximal specific binding (100%) was defined as the difference in radioactivity (cpm) bound to cell membranes in the absence and presence of 1 μM NDP-α-MSH. […] Each assay was conducted in triplicate and the actual mean values are described, with results less than 0% reported as 0%. Ki values for test peptides of the present invention were determined using Graph-Pad Prism® curve-fitting software.

[6] = biological target: T1, human recombinant melanocortin-4 …; assay: competitive inhibition of labelled NDP-α-MSH, hMC4-R membranes
[7] = biological target: T1, human recombinant melanocortin-4 …; assay: competitive inhibition of [I125]-NDP-α-MSH, hMC4-R HEK-293 membranes
Protocol: as §2, §1

[8] = biological target: T1, human recombinant melanocortin-4 …; assay: cell-based or functional assay; remark: listed apart in the source
[9] = biological target: T3, endogenous MC1-R of B-16 mouse melanoma cells (mouse, UniProt Q01727 1-315); assay: competitive binding vs [I125]-NDP-α-MSH
T3 construct: whole, on cells; membrane homogenates; also called mouse B16 MC1-R
Protocol: (§3) After incubation for 60 minutes at 37° C., the assay mixture was filtered and the membranes washed three times with ice-cold buffer. Filters were dried and counted in a gamma counter for bound radioactivity. […] Maximal specific binding (100%) was defined as the difference in radioactivity (cpm) bound to cell membranes in the absence and presence of 1 μM NDP-α-MSH. […] Each assay was conducted in triplicate and the actual mean values are described, with results less than 0% reported as 0%. Ki values for test peptides of the present invention were determined using Graph-Pad Prism® curve-fitting software.

[10] = biological target: T3, endogenous MC1-R of B-16 mouse melanoma …; assay: competitive binding vs Eu-labeled NDP-α-MSH
[11] = biological target: T4, human recombinant melanocortin-3 receptor (human, UniProt P41968 1-323); assay: competitive binding vs Eu-labeled NDP-α-MSH
T4 construct: whole, on cells; Membrane homogenates of HEK-293 cells expressing the receptor; also called hMC3-R; MC3-R

[12] = biological target: T4, human recombinant melanocortin-3 …; assay: competitive binding vs [I125]-NDP-α-MSH
Protocol: as §3

T4 sequence (P41968 whole entry): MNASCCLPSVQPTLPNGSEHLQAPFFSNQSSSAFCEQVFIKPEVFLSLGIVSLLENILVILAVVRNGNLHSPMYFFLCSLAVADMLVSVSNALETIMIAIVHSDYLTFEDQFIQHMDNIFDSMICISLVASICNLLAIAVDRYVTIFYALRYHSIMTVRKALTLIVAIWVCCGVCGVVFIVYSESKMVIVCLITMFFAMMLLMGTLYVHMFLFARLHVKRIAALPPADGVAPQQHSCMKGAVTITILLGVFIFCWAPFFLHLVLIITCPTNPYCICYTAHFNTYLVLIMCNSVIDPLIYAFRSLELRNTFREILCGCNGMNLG
T2 sequence (Q01726 whole entry): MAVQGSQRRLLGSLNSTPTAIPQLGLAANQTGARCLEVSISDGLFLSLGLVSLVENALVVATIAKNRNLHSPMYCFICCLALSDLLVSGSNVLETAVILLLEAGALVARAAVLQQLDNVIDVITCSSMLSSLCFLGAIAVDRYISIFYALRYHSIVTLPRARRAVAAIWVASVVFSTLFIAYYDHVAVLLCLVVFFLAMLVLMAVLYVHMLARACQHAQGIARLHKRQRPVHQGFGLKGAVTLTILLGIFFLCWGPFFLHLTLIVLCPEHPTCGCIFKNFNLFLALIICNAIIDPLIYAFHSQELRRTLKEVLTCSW
T3 sequence (Q01727 whole entry): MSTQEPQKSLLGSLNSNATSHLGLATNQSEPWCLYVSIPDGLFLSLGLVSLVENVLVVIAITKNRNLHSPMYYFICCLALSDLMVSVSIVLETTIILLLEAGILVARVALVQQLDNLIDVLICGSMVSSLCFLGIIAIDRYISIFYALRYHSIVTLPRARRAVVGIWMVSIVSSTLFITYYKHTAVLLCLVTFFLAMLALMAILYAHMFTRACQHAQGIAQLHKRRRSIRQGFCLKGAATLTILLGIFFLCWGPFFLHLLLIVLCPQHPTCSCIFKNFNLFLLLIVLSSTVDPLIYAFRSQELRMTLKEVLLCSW
T1 sequence (P32245 whole entry): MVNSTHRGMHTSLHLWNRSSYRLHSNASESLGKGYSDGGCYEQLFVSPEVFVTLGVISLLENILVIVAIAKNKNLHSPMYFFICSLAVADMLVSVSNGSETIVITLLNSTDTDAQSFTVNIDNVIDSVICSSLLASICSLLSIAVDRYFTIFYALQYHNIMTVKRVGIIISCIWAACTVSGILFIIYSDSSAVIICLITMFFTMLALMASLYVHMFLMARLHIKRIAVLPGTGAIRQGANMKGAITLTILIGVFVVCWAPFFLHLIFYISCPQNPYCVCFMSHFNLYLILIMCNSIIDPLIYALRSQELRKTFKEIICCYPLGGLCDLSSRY

Binder: Ac-[dR]D[Pro(4R-Bn)][dF]RWK-NH2 (lactam 2-7, also called peptide No. 72) [Ac-D-Arg-cyclo(Asp-Pro(4R-Bzl)-D-Phe-Arg-Trp-Lys)-NH2]
- Ki [1]: 2 nM

Binder: Ac-[dR]EH[dF]RW[Orn]-OH (lactam 2-7, also called peptide No. 85) [Ac-D-Arg-cyclo(Glu-His-D-Phe-Arg-Trp-Orn)-OH]
- Ki [1]: 40 nM

Binder: Ac-[dR][Orn]H[dF]RWE-NH2 (lactam 2-7, also called peptide No. 98) [Ac-D-Arg-cyclo(Orn-His-D-Phe-Arg-Trp-Glu)-NH2]
- Ki [1]: 4 nM

B1: Ac-Arg-cyclo(Dab-Gln-D-Phe-Arg-Trp-hGlu)-NH2 (peptide)
peptide: RXQFRWX
modifications: N-acetyl; X2 = Dab; D-Phe 4; X7 = hGlu; side-chain lactam Dab2-hGlu7; C-terminal amide
notes: also called peptide No. 159
- hMC4-R EC50 [2]: 0.825 nM
- hMC4-R Emax (%) [2]: 99%
- hMC1-R EC50 [3]: 26 nM
- hMC1-R Emax (%) [3]: 98%
- binding selectivity, MC4-R against MC1-R [4]: ≥ 20 fold
- Ki [5]: 133 nM
- Ki [6]: 4 nM
- Ki [7]: 4 nM

Binder: Ac-R[Aad]N[dF]RW[Dab]-NH2 (lactam 2-7, also called peptide No. 160) [Ac-Arg-cyclo(hGlu-Asn-D-Phe-Arg-Trp-Dab)-NH2]
- hMC4-R EC50 [2]: 0.245 nM
- hMC4-R Emax (%) [2]: 98%
- Ki [5]: 295 nM
- Ki [6]: 8 nM
- Ki [7]: 8 nM

Binder: Ac-RE[Orn][dF]RW[Orn]-NH2 (lactam 2-7, also called peptide No. 104) [Ac-Arg-cyclo(Glu-Orn-D-Phe-Arg-Trp-Orn)-NH2]
- Ki [1]: 9 nM

Binder: Ac-REH[dF]RW[Orn]-NHcPr (lactam 2-7, also called peptide No. 110) [Ac-Arg-cyclo(Glu-His-D-Phe-Arg-Trp-Orn)-NH-cyclopropyl]
- Ki [1]: 1 nM

Binder: Ac-REN[dF]RW[Orn]-NH2 (lactam 2-7, also called peptide No. 161) [Ac-Arg-cyclo(Glu-Asn-D-Phe-Arg-Trp-Orn)-NH2]
- hMC4-R EC50 [2]: 0.413 nM
- hMC4-R Emax (%) [2]: 91%
- hMC1-R EC50 [3]: 13 nM
- hMC1-R Emax (%) [3]: 85%
- binding selectivity, MC4-R against MC1-R [4]: ≥ 20 fold
- Ki [5]: 155 nM
- Ki [6]: 6 nM
- Ki [7]: 6 nM

Binder: Ac-RKN[dF]RWD-NH2 (lactam 2-7) [Ac-Arg-cyclo(Lys-Asn-D-Phe-Arg-Trp-Asp)-NH2]
- hMC4-R EC50 [2]: 0.189 nM
- hMC4-R Emax (%) [2]: 97%
- hMC1-R EC50 [3]: 14 nM
- hMC1-R Emax (%) [3]: 91%
- binding selectivity, MC4-R against MC1-R [4]: ≥ 20 fold
- Ki [5]: 240 nM
- Ki [6]: 5 nM
- Ki [7]: 5 nM

Binder: Ac-REH[dF]RW[Orn]-NHEt (lactam 2-7, also called peptide No. 109) [Ac-Arg-cyclo(Glu-His-D-Phe-Arg-Trp-Orn)-NH-Et]
- Ki [1]: 6 nM

Binder: Ac-R[Dab]H[dF]RW[Aad]-NH2 (lactam 2-7) [Ac-Arg-cyclo(Dab-His-D-Phe-Arg-Trp-hGlu)-NH2]
- intrinsic activity (cAMP; NDP-α-MSH = 100%) [8]: 95%

Binder: Ac-R[Orn]N[dF]RWE-NH2 (lactam 2-7, also called peptide No. 154) [Ac-Arg-cyclo(Orn-Asn-D-Phe-Arg-Trp-Glu)-NH2]
- hMC1-R EC50 [3]: 25 nM
- Ki [5]: 688 nM

Binder: Ac-[dR][Orn]Q[dF]RWE-NH2 (lactam 2-7) [Ac-D-Arg-cyclo(Orn-Gln-D-Phe-Arg-Trp-Glu)-NH2]
- hMC4-R Emax (%) [2]: 89%
- hMC1-R Emax (%) [3]: 85%

Binder: Ac-[dR][Orn]N[dF]RWE-NH2 (lactam 2-7, also called peptide No. 156) [Ac-D-Arg-cyclo(Orn-Asn-D-Phe-Arg-Trp-Glu)-NH2]
- hMC1-R EC50 [3]: 80 nM
- hMC1-R Emax (%) [3]: 81%
- Ki [5]: 840 nM

Binder: Ac-R[Orn]Q[dF]RWE-NH2 (lactam 2-7) [Ac-Arg-cyclo(Orn-Gln-D-Phe-Arg-Trp-Glu)-NH2]
- hMC1-R Emax (%) [3]: 89%

Binder: Ac-RD[Pro(4R-3-Cl-Bzl)][dF]RWK-NH2 (lactam 2-7, also called peptide No. 124) [Ac-Arg-cyclo(Asp-Pro(4R-3-Cl-Bzl)-D-Phe-Arg-Trp-Lys)-NH2]
- Ki [1]: 19 nM

Binder: Ac-R[Orn]H[dF]RWE-OH (lactam 2-7, also called peptide No. 84) [Ac-Arg-cyclo(Orn-His-D-Phe-Arg-Trp-Glu)-OH]
- Ki [1]: 12 nM

Binder: Ac-RDH[dF]RWK-NH2 (lactam 2-7, also called peptide No. 1) [Ac-Arg-cyclo(Asp-His-D-Phe-Arg-Trp-Lys)-NH2]
- intrinsic activity (cAMP; NDP-α-MSH = 100%) [8]: 91%
- Ki [9]: 3 nM
- Ki [10]: 4 nM
- Ki [11]: 103 nM

B2: Ac-Arg-cyclo(Asp-Gln-D-Phe-Arg-Trp-Lys)-NH2 (peptide)
peptide: Ac-RDQ[dF]RWK-NH2
modifications: lactam 2-7
notes: any difference is only in the drawings; also called peptide No. 32
- EC50 (cAMP) [8]: 17 nM
- intrinsic activity (cAMP; NDP-α-MSH = 100%) [8]: 98%
- Ki [9]: 133 nM
- Ki [12]: 340 nM
- Ki [10]: 673 nM

Binder: Ac-R[Orn][Dab][dF]RWE-NH2 (lactam 2-7, also called peptide No. 119) [Ac-Arg-cyclo(Orn-Dab-D-Phe-Arg-Trp-Glu)-NH2]
- Ki [1]: 3 nM

B3: Ac-Arg-cyclo(Lys-Asn-D-Phe-Arg-Nal 2-Asp)-NH2 (peptide)
peptide: RKNFRXD
HELM: PEPTIDE1{[ac].R.K.N.[dF].R.[O=C([C@H](Cc1ccc2ccccc2c1)N[*:1])[*:2]].D.[am]}$PEPTIDE1,PEPTIDE1,3:R3-8:R3$$$V2.0
SMILES: CC(=O)N[C@@H](CCCNC(=N)N)C(=O)N[C@H]1CCCCNC(=O)C[C@@H](C(N)=O)NC(=O)[C@H](Cc2ccc3ccccc3c2)NC(=O)[C@H](CCCNC(=N)N)NC(=O)[C@@H](Cc2ccccc2)NC(=O)[C@H](CC(N)=O)NC1=O
notes: also called peptide No. 162
- hMC4-R EC50 [2]: 0.85 nM
- hMC4-R Emax (%) [2]: 82%
- hMC1-R EC50 [3]: 22 nM
- hMC1-R Emax (%) [3]: 89%
- binding selectivity, MC4-R against MC1-R [4]: ≥ 20 fold
- Ki [5]: 255 nM
- Ki [6]: 5 nM
- Ki [7]: 5 nM

Binder: Ac-RD[Pro(4R-2-Cl-Bzl)][dF]RWK-NH2 (lactam 2-7, also called peptide No. 123) [Ac-Arg-cyclo(Asp-Pro(4R-2-Cl-Bzl)-D-Phe-Arg-Trp-Lys)-NH2]
- Ki [1]: 8 nM

Binder: Ac-RD[Pro(4R-Bn)][dF]RWK-NH2 (lactam 2-7, also called peptide No. 18) [Ac-Arg-cyclo(Asp-Pro(4R-Bzl)-D-Phe-Arg-Trp-Lys)-NH2]
- Ki [1]: 3 nM

Binder: Ac-RDV[dF]RWK-NH2 (lactam 2-7, also called peptide No. 16) [Ac-Arg-cyclo(Asp-Val-D-Phe-Arg-Trp-Lys)-NH2]
- intrinsic activity (cAMP; NDP-α-MSH = 100%) [8]: 42%
- Ki [10]: 323 nM
- Ki [11]: 1060 nM

Binder: Ac-[dR]DQ[dF]RWK-NH2 (lactam 2-7, also called peptide No. 71) [Ac-D-Arg-cyclo(Asp-Gln-D-Phe-Arg-Trp-Lys)-NH2]
- hMC4-R EC50 [2]: 2 nM
- hMC4-R Emax (%) [2]: 89%
- hMC1-R Emax (%) [3]: 88%
- Ki [6]: 45 nM
- Ki [7]: 45 nM
